Laboratory results published in publication PMC7810697, “Sarcolipin alters SERCA1a interdomain communication by impairing binding of both calcium and ATP” (Scientific Reports, 2021).
Several values for one entry are separate records, joined by “and”; a condition that tells them apart may be missing. Equal values may be shown once. Ends that are not written are not given here. * marks the point of attachment. Palmitoyl = CCCCCCCCCCCCCCCC(=O)*

Experiments:
[1] = target: T1, recombinant SERCA1a (recS1a) (Oryctolagus cuniculus, UniProt P04191); test: Kinetics of phosphorylation from [γ32P]ATP, recS1a; assay type: biochemical, rabbit (expressed in S. cerevisiae); conditions: for EPmax, from calcium deprived state: Fig. 4C, mean of six (pSLN), four (SLN) replicates, recS1a alone 3.09 ± 0.10; for t1/2 of phosphorylation, from calcium deprived state: EGTA 1 min then 2 µM [γ32P]ATP and calcium, six (pSLN) or four (SLN) replicates from two independent experiments, recS1a alone 6.8, p < 0.0001; for rate of phosphorylation, from calcium deprived state: recS1a, starting from calcium-deprived state, Fig. 4C,D
T1 construct: BAD (biotin acceptor domain) (C, cleaved yes); made in house; host or cells: Saccharomyces cerevisiae
T1 sequence (P04191 1-994 isoform P04191-2): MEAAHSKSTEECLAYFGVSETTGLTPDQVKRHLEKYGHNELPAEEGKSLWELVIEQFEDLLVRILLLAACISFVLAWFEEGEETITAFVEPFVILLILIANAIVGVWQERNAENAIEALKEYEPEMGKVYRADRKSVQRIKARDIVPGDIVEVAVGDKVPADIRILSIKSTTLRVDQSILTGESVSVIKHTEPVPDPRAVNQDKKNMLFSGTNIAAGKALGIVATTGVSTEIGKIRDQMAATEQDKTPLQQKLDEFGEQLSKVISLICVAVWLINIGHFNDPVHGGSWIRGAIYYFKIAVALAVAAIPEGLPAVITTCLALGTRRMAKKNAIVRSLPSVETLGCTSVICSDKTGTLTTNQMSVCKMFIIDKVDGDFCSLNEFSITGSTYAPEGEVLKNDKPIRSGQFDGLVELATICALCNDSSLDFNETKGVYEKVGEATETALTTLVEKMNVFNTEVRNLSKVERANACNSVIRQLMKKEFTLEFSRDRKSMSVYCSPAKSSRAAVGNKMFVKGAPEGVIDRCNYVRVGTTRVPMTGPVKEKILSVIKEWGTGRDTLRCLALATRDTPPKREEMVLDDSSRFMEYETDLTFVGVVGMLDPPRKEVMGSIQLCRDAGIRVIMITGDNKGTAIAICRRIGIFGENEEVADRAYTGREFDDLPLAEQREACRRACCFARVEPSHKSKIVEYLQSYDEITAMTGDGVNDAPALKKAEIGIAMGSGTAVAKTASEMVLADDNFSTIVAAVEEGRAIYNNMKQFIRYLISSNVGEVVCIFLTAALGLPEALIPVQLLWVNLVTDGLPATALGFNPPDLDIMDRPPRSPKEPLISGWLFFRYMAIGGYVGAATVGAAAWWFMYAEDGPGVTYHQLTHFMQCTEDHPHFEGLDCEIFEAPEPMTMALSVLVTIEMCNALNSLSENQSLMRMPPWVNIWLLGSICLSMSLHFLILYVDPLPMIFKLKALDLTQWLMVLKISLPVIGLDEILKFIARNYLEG
Experimental: (§1) Transient formation of the phosphoenzyme intermediate was measured after incubation with [γ^32P]ATP followed by acid quenching, and filtration. For most experiments, 50 µL of enzyme at 10 µg/mL in a buffer containing 50 mM Tes-Tris pH7.5, 1 mM KCl, 5 mM MgCl2, 20% glycerol (w/w) and 0.5 mg/mL DDM, supplemented or not with SLN, was stored on ice. Concentrations of EGTA and calcium are specified in figure legends in order to reach the appropriate [Ca^2+]free and therefore the desired starting state for the ATPase. For kinetics of phosphorylation, we initiate reaction by addition of 2 µM [γ^32P]ATP (5 mCi/µmole), and calcium at 100 µM when specified. Reaction was quenched by addition of 2 mL of cold quenching medium (500 mM TCA + 30 mM H3P0_4) under vigorous mixing, and immediately stored on ice for 20–30 min to improve precipitation, a period of time critical for retention of the precipitate on the filter in presence of detergent. This was followed by filtration on GS filters (Millipore, Saint Quentin-Fallavier, France) and careful rinsing of the filters with diluted quenching medium (50 mM TCA + 3 mM H3P0_4). The amount of radioactivity bound to the filter was estimated by liquid scintillation counting (Perkin Elmer TriCarb Counter). When starting from a calcium-deprived state (Fig. 4C,D), EGTA was added only one minute before starting phosphorylation to limit irreversible inactivation of the solubilized ATPase, although the presence of glycerol helps in protecting the enzyme from irreversible inactivation. For dephosphorylation kinetics, 1 mM “cold” Mg.ATP was added after a 30 s period of phosphorylation. For Ca^2+-dependency, we adjust the concentration of free calcium according to the Ca.EGTA constant as mentioned above, before triggering phosphorylation. […] Phosphorylations were done at 0 °C especially for inhibition by vanadate to prevent dissociation of vanadate and limit irreversible inactivation in absence of calcium.

SERCA1a [2] = conditions: cited from earlier work
Excerpt: Effect on the turnover is less clear as it seems to highly depend on the system used for functional characterization. […] This post-translational modification is also present in pig SLN and presumably in a few other mammals and birds, as judged from the amino-acid sequences. Among the other hundred seq ...

SERCA1a [3] = conditions: cross-linking experiments; cited from earlier work
Excerpt: An analysis of all the published data on biochemical characterization of PLB or SLN highlights heterogeneity in the results.

[4] = target: T1, recombinant SERCA1a (recS1a); test: Calcium binding at equilibrium by tryptophan fluorescence; parameters: species or system rabbit (expressed in S. cerevisiae); conditions: average of three independent experiments; for Ca1/2 (tryptophan fluorescence), recS1a + pSLN: at equilibrium, pH 7, 20 °C, DDM, 20% glycerol, p=0.200 vs recS1a alone
Experimental: (§2) Intrinsic fluorescence of SERCA1a was measured with a SPEX Fluorolog spectrofluorometer (Horiba/Jobin–Yvon, Longjumeau, France) as described before. Briefly, signals were monitored with excitation and emission wavelength set at 295 and 320 nm, with bandwidths of 2 and 10 nm, respectively. Changes in tryptophan fluorescence were recorded at 20 °C after dilution of protein samples to a final concentration of about 6–7.5 µg/mL into a medium containing 50 mM MOPS-Tris pH 7, 100 mM KCl, 5 mM MgCl2, 20% glycerol (v/v) and 10 mg/mL DDM. In presence of SLN, recS1a and SLN were first mixed together and incubate for 1 h on ice before measurement. In absence of SLN, recS1a is supplemented with 0.07 mg/mL C12E8 to compensate the detergent present with SLN. The Maxchelator program was used for estimating [Ca^2+]free[59] (program available at https://somapp.ucdmc.ucdavis.edu/pharmacology/bers/maxchelator/downloads.htm). The dissociation constant of the Ca.EGTA complex was taken to be 0.4 µM at pH7 and was assumed to be the same in the presence of glycerol.

[5] = target: T1, recombinant SERCA1a (recS1a); test: Mg.ATP binding by tryptophan fluorescence; parameters: species or system rabbit (expressed in S. cerevisiae)
Experimental: as §2

[6] = target: T1, recombinant SERCA1a (recS1a); test: Calcium dependence of phosphoenzyme level; assay type: biochemical, rabbit (expressed in S. cerevisiae)
Experimental: as §1

[7] = target: T1, recombinant SERCA1a (recS1a); test: Vanadate inhibition of phosphoenzyme formation, recS1a; assay type: biochemical, rabbit (expressed in S. cerevisiae); conditions: for K1/2 (K0.5) for vanadate inhibition, recS1a + pSLN: DDM-solubilized, preincubation with orthovanadate without calcium, phosphorylation 30 s at 0 °C, three independent experiments, p < 0.0001 vs recS1a alone
Experimental: as §1

## SLN: chemically synthesized non-palmitoylated rabbit sarcolipin; in cited literature results sarcolipin in general (MERSTRELCLNFTVVLITVILIWLLVRSYQY; UniProt P42532 1-31, looked up)
[1]; SLN:SERCA1a 10:1
  EPmax, from calcium deprived state: 3.15 ± 0.05 nmoles EP/mg ATPase
[1]; SLN:SERCA1a 10:1 mol:mol
  t1/2 of phosphorylation, from calcium deprived state: 13.7 s
[1]
  rate of phosphorylation, from calcium deprived state: significantly lower
SERCA1a [2]; 0.35 µM in absence of SLN
  apparent affinity for calcium in presence of SLN: 0.51 µM
SERCA1a [2]; % of Vmax measured in absence of SLN, ref 13 and Supplementary Table 1
  Vmax in presence of SLN, increase reported by some authors: up to 140%
SERCA1a [3]
  cross-linking interaction with SERCA1a: interaction of SLN with SERCA1a at all the major steps of the catalytic cycle

## pSLN: chemically synthesized S-palmitoylated rabbit sarcolipin, 31-residue single-spanning membrane peptide, palmitoylated on Cys9 (MERSTRELC(Palmitoyl)LNFTVVLITVILIWLLVRSYQY; UniProt P42532 1-31, looked up)
[4]
  Ca1/2 (tryptophan fluorescence), recS1a + pSLN: 4.5 µM
  nH for calcium (tryptophan fluorescence), recS1a + pSLN: 1.96+/-0.20
[4]; listed as Palm-SLN
  Ca1/2 (tryptophan fluorescence), recS1a + pSLN: 4.48 +/- 0.52 µM
[5]; 0.3 µM Mg.ATP, increase of fluorescence in absence of pSLN
  fluorescence change on 0.3 µM Mg.ATP, recS1a + pSLN: no fluorescence intensity variation
[5]; 300 µM Mg.ATP, decrease of fluorescence in absence of pSLN
  fluorescence change on 300 µM Mg.ATP, recS1a + pSLN: increase of signal
[5]; calcium-deprived (2 mM EGTA), pH 7, 20 °C, DDM, 20% glycerol, three independent experiments, p = 0.045
  Mg-ATP1/2 (affinity for Mg.ATP), recS1a + pSLN: 11 µM and 11.0 ± 1 µM
[5]; three independent experiments
  nH for Mg.ATP, recS1a + pSLN: 0.95 ± 0.06
[1]; SLN:SERCA1a 10:1, Fig. 4A, average of four replicates from two independent experiments, recS1a alone 3.37 ± 0.35
  EPmax, from calcium bound state: 3.23 ± 0.37 nmoles EP/mg ATPase
[1]; SLN:SERCA1a 10:1
  EPmax, from calcium deprived state: 3.10 ± 0.09 nmoles EP/mg ATPase
[1]; SLN:SERCA1a 10:1 mol:mol, 2 µM [γ32P]ATP, four replicates from two independent experiments, recS1a alone 5.7, p = 0.45
  t1/2 of phosphorylation, from calcium bound state (Ca2.E1): 5.1 s
[1]; SLN:SERCA1a 10:1 mol:mol
  t1/2 of phosphorylation, from calcium deprived state: 13.5 s
[1]; recS1a in absence or presence of pSLN, starting from Ca2.E1
  rate of phosphorylation, from calcium bound state: the same
[1]
  rate of phosphorylation, from calcium deprived state: significantly lower
[6]; five independent experiments
  nH for calcium (phosphoenzyme level), recS1a + pSLN: 0.74 ± 0.03
[6]; phosphorylation 15 s, varying calcium, five independent experiments, 36 data points per fit, p = 0.29
  Ca1/2 (phosphoenzyme level), recS1a + pSLN: 0.58 ± 0.05 µM and 0.58 µM
[6]; recS1a + pSLN, Fig. 4E, recS1a alone 3.13 ± 0.11
  EPmax (calcium dependence): 3.19 ± 0.11 nmoles EP/mg ATPase
[7]
  K1/2 (K0.5) for vanadate inhibition, recS1a + pSLN: 0.22 ± 0.01 µM
[7]; listed as Palm-SLN
  K1/2 (K0.5) for vanadate inhibition, recS1a + pSLN: 0.22+/-0.01 µM
[7]; recS1a + pSLN, recS1a alone 2.01 ± 0.05
  EPmax (vanadate series): 2.07 ± 0.21 nmoles/mg of ATPase
